This test has as its target mouse laminin (mouse). Kind of test: ELISA; ELISA-type: mouse laminin coated on a black polystyrene plate, 50 µg/mL biotinylated-Gal-8, 37 °C 1 h, Streptavidin-Alexa 488, fluorescence (RFU). Background: ELISA stands for enzyme-linked immunosorbent assay.

“biotinylated human Galectin-8 (natural protein)”: the relative fluorescence units (RFU) is 4000 RFU.
